# Tests used:
# [1] = molecular target: T1, human Bfl-1 (c-myc-tagged) (human, UniProt Q16548 1-151, limits assumed); test: X-ray crystal structure
# T1 construct: c-myc-tagged in the fluorescence polarization and yeast-display assays; the same entry is used for them; also called c-myc-Bfl-1; Myc-tagged Bfl-1; not shown: c-myc tag
# T1 sequence (looked up): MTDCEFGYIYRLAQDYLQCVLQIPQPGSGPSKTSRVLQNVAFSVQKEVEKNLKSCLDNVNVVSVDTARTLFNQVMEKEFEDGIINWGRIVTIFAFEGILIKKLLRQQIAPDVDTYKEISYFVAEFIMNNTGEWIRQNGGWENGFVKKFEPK
# [2] = molecular target: T1, human Bfl-1 (c-myc-tagged); test: fluorescence anisotropy competition (FIG. 1E)
# Method: (§1) Fluorescence polarization assays were performed in order to measure the binding abilities of the peptide constructs. […] C-myc-tagged receptors were used for all Bcl-2 homologs. Plates were mixed at room temperature for 3 h. Experiments were done in triplicate. Data were fit, as described for competition fluorescence anisotropy experiments in Foight et al. (Foight, G. W., Ryan, J. A., Gullá, S. V, Letai, A. & Keating, A. E. Designed BH3 Peptides with High Affinity and Specificity for Targeting Mcl-1 in Cells. ACS Chem. Biol. 9, 1962-8 (2014)), to a complete competitive binding model (equation 17 in Roehrl et al., 2004)(Roehrl, M. H. A., Wang, J. Y. & Wagner, G. A General Framework for Development and Data Analysis of Competitive High-Throughput Screens for Small-Molecule Inhibitors of Protein-Protein Interactions by Fluorescence Polarization^{†}. Biochemistry 43, 16056-16066 (2004)) using a Python script.
# [3] = molecular target: T2, human Mcl-1 (c-myc-tagged) (human, UniProt Q07820 172-327); test: assay not named in the sentence (competition fluorescence anisotropy elsewhere)
# T2 construct: c-myc-tagged in the fluorescence polarization assay; also called c-myc-Mcl-1; not shown: c-myc tag
# [4] = molecular target: T1, human Bfl-1 (c-myc-tagged); test: competition fluorescence anisotropy against fluoresceinated Bim BH3
# Method: as §1
# T2 sequence (Q07820 172-327 limits assumed): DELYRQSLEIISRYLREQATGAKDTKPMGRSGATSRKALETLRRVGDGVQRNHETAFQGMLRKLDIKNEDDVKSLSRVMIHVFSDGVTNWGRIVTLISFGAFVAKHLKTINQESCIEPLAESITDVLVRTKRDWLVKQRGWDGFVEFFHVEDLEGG
binder,measurement,setting,value
"Ac-QWAREIGAQLRRMADDLNAQYER-NH2 (peptide, UniProt Q9BXH1 132-154, looked up, domain: BH3) [Puma BH3 peptide (23 residues)]",binding result,[1],binds
Ac-QWVREIAAQLRRMADDLNAQYER-NH2 (also called PUMA/FS2 chimeric peptides) [PUMA/FS2 chimeric peptide: PUMA with larger residues at positions A2 and E2],fold increase in affinity against PUMA,[2],2.3 fold
Ac-QWVREIAAGLRRAADDVNAQVER-NH2 [FS2],"fold increase in affinity against the chimera with smaller residues at G2, D3, A4 and E4",[2],28.6 fold
same,fold weaker than binding to Bfl-1,[3],> 100 fold
"Ac-QWAREIGAGLRRAADDVNAQVER-NH2 (also called PUMA/FS2 chimeric peptides) [PUMA/FS2 chimeric peptide: PUMA with smaller residues at positions G2, D3, A4 and E4]",binding result,[2],binds
Ac-QWVREIAAGLRLAADNVNAQLER-NH2 [FS1],Ki,[4],15 nM
